In paper PMC2001758:

Target: high affinity saturable binding sites for LDL on the human non-small cell lung tumour line L-DAN (LDL-receptors) (human (endogenous in L-DAN)) (UniProt P01130)
Assay: radioligand binding; 125I-labelled LDL on cells of the human non-small cell lung tumour line L-DAN; saturable binding

Sequence of high affinity saturable binding sites for LDL on the human non-small cell lung tumour line L-DAN (LDL-receptors) (human (endogenous in L-DAN)) (P01130 22-860): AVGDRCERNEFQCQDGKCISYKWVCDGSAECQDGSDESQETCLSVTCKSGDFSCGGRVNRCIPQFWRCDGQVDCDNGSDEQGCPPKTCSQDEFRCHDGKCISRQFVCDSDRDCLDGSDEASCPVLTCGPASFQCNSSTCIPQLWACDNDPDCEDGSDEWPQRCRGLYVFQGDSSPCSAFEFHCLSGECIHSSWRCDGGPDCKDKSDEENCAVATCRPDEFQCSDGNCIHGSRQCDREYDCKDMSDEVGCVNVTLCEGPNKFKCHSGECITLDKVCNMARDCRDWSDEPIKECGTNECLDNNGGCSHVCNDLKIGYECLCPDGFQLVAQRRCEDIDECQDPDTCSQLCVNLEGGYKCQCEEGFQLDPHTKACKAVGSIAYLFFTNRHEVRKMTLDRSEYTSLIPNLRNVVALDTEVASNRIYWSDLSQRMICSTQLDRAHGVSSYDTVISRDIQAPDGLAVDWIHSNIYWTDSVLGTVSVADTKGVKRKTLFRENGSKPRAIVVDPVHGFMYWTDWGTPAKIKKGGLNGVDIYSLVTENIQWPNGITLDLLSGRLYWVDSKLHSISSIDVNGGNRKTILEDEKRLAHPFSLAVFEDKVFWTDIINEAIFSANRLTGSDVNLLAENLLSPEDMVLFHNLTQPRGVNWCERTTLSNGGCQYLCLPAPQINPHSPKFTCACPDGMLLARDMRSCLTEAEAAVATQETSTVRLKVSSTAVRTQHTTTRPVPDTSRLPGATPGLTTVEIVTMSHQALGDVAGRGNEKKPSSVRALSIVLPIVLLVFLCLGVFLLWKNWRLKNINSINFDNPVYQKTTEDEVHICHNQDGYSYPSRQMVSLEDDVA

Km (p ml ' (as printed, garbled)): 40
Substance: low density lipoprotein (LDL) (from UniProt P04114 28-4563)
